{"source": "IntAct's records for PubMed 25910212", "parents": {"B1": {"name": "ATP synthase mitochondrial F1 complex assembly factor 2 (Homo sapiens), Q8N5M1 (parent)", "chain": "MWRSCLRLRDGGRRLLNRPAGGPSASMSPGPTIPSPARAYAPPTERKRFYQNVSITQGEGGFEINLDHRKLKTPQAKLFTVPSEALAIAVATEWDSQQDTIKYYTMHLTTLCNTSLDNPTQRNKDQLIRAAVKFLDTDTICYRVEEPETLVELQRNEWDPIIEWAEKRYGVEISSSTSIMGPSIPAKTREVLVSHLASYNTWALQGIEFVAAQLKSMVLTLGLIDLRLTVEQAVLLSRLEEEYQIQKWGNIEWAHDYELQELRARTAAGTLFIHLCSESTTVKHKLLKE", "partner": "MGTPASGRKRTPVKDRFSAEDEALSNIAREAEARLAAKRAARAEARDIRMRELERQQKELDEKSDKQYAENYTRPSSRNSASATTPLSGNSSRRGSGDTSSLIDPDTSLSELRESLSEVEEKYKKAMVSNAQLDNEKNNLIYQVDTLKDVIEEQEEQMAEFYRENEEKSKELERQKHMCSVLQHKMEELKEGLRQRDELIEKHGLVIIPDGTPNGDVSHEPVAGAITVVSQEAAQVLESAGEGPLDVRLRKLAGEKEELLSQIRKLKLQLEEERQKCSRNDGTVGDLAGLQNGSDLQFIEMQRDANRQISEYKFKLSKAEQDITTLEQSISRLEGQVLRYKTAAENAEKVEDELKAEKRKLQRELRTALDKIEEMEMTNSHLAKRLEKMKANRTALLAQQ"}, "B2": {"name": "Beta-crystallin A4 (Homo sapiens), P53673 (parent)", "chain": "MTLQCTKSAGPWKMVVWDEDGFQGRRHEFTAECPSVLELGFETVRSLKVLSGAWVGFEHAGFQGQQYILERGEYPSWDAWGGNTAYPAERLTSFRPAACANHRDSRLTIFEQENFLGKKGELSDDYPSLQAMGWEGNEVGSFHVHSGAWVCSQFPGYRGFQYVLECDHHSGDYKHFREWGSHAPTFQVQSIRRIQQ", "partner": "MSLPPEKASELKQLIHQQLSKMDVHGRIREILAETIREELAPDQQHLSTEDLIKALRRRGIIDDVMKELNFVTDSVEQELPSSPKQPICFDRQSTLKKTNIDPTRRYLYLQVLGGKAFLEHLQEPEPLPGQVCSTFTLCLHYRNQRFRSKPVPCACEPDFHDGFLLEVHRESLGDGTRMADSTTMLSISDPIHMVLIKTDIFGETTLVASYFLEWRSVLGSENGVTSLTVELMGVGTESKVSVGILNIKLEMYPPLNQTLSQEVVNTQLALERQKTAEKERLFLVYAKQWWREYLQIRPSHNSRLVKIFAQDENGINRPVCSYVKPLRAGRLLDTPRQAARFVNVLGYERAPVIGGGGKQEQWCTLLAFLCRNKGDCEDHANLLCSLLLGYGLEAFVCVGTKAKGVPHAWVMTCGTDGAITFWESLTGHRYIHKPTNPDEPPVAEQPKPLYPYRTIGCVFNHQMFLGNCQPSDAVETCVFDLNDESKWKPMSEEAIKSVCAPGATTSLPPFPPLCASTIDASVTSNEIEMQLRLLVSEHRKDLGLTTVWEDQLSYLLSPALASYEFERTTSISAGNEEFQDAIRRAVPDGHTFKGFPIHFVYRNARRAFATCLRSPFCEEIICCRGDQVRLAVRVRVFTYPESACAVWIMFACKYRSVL"}, "B3": {"name": "Meiotic recombination protein DMC1/LIM15 homolog (Homo sapiens), Q14565 (parent)", "chain": "MKEDQVVAEEPGFQDEEESLFQDIDLLQKHGINVADIKKLKSVGICTIKGIQMTTRRALCNVKGLSEAKVDKIKEAANKLIEPGFLTAFEYSEKRKMVFHITTGSQEFDKLLGGGIESMAITEAFGEFRTGKTQLSHTLCVTAQLPGAGGYPGGKIIFIDTENTFRPDRLRDIADRFNVDHDAVLDNVLYARAYTSEHQMELLDYVAAKFHEEAGIFKLLIIDSIMALFRVDFSGRGELAERQQKLAQMLSRLQKISEEYNVAVFVTNQMTADPGATMTFQADPKKPIGGHILAHASTTRISLRKGRGELRIAKIYDSPEMPENEATFAITAGGIGDAKE"}, "B4": {"name": "U4/U6 small nuclear ribonucleoprotein Prp31 (Homo sapiens), Q8WWY3 (parent)", "chain": "MSLADELLADLEEAAEEEEGGSYGEEEEEPAIEDVQEETQLDLSGDSVKTIAKLWDSKMFAEIMMKIEEYISKQAKASEVMGPVEAAPEYRVIVDANNLTVEIENELNIIHKFIRDKYSKRFPELESLVPNALDYIRTVKELGNSLDKCKNNENLQQILTNATIMVVSVTASTTQGQQLSEEELERLEEACDMALELNASKHRIYEYVESRMSFIAPNLSIIIGASTAAKIMGVAGGLTNLSKMPACNIMLLGAQRKTLSGFSSTSVLPHTGYIYHSDIVQSLPPDLRRKAARLVAAKCTLAARVDSFHESTEGKVGYELKDEIERKFDKWQEPPPVKQVKPLPAPLDGQRKKRGGRRYRKMKERLGLTEIRKQANRMSFGEIEEDAYQEDLGFSLGHLGKSGSGRVRQTQVNEATKARISKTLQRTLQKQSVVYGGKSTIRDRSSGTASSVAFTPLQGLEIVNPQAAEKKVAEANQKYFSSMAEFLKVKGEKSGLMST", "partner": "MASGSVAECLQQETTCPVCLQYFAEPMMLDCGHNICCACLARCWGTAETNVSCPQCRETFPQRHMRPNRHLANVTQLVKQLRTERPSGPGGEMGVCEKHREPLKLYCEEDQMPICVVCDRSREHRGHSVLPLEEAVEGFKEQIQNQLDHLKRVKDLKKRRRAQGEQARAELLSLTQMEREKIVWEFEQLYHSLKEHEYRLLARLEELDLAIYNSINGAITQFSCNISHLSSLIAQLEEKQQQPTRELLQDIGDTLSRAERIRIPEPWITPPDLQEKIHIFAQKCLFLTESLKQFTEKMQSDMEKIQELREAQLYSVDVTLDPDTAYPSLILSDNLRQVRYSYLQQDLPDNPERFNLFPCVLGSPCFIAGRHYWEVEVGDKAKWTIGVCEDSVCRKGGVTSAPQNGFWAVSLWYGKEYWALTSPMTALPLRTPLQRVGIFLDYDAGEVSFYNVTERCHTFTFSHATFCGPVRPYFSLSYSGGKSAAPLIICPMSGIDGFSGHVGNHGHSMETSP"}, "B5": {"name": "U4/U6 small nuclear ribonucleoprotein Prp31 (Homo sapiens), Q8WWY3 (parent)", "chain": "B4 chain", "partner": "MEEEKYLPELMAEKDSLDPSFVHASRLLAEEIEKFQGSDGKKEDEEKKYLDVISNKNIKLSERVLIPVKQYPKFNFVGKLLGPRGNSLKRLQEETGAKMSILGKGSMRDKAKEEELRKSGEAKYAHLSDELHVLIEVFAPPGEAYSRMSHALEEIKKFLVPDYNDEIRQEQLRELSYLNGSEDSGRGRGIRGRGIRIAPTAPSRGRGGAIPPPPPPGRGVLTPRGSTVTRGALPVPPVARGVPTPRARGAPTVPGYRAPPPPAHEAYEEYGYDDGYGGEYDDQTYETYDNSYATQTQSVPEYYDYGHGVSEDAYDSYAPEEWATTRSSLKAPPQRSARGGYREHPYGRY"}, "B6": {"name": "ATP synthase mitochondrial F1 complex assembly factor 2 (Homo sapiens), Q8N5M1 (parent)", "chain": "B1 chain", "partner": "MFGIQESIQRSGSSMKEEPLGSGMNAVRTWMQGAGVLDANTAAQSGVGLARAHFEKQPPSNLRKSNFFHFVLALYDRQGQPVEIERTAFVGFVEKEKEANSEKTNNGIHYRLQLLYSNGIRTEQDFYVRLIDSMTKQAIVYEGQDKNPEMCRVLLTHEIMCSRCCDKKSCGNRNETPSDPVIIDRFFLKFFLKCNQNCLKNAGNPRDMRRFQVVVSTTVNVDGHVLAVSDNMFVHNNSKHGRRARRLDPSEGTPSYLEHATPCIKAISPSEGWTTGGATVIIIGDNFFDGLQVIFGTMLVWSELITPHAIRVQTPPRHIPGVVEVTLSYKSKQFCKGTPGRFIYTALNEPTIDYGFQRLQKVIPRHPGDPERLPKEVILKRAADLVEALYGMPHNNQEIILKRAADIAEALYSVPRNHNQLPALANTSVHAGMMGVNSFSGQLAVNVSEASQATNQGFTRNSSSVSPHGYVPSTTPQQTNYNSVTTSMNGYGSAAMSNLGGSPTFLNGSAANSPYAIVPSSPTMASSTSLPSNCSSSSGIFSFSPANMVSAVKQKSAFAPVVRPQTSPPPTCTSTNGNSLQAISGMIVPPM"}, "B7": {"name": "Inactive peptidyl-prolyl cis-trans isomerase FKBP6 (Homo sapiens), O75344 (parent)", "chain": "MGGSALNQGVLEGDDAPGQSLYERLSQRMLDISGDRGVLKDVIREGAGDLVAPDASVLVKYSGYLEHMDRPFDSNYFRKTPRLMKLGEDITLWGMELGLLSMRRGELARFLFKPNYAYGTLGCPPLIPPNTTVLFEIELLDFLDCAESDKFCALSAEQQDQFPLQKVLKVAATEREFGNYLFRQNRFYDAKVRYKRALLLLRRRSAPPEEQHLVEAAKLPVLLNLSFTYLKLDRPTIALCYGEQALIIDQKNAKALFRCGQACLLLTEYQKARDFLVRAQKEQPFNHDINNELKKLASCYRDYVDKEKEMWHRMFAPCGDGSTAGES", "partner": "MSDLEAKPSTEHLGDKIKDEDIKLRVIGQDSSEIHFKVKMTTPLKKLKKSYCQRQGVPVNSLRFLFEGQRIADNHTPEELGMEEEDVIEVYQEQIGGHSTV"}}, "data": [{"variants_of": "B1", "settings": "with LRRFIP2, Q9Y608-2", "values": [{"variant": "W94R", "effect of a mutation on the interaction": "disrupting interaction strength"}]}, {"variants_of": "B2", "settings": "with cep76_human CEP76, Q8TAP6", "values": [{"variant": "V36M", "effect of a mutation on the interaction": "disrupting interaction strength"}, {"variant": "F94S", "effect of a mutation on the interaction": "disrupting interaction strength"}, {"variant": "L69P", "effect of a mutation on the interaction": "disrupting interaction strength"}]}, {"variants_of": "B3", "settings": "with psa3_human PSMA3, P25788", "values": [{"variant": "M200V", "effect of a mutation on the interaction": "disrupting interaction strength"}]}, {"variants_of": "B3", "settings": "with sdcb1_human SDCBP", "values": [{"variant": "M200V", "effect of a mutation on the interaction": "disrupting interaction strength"}]}, {"variants_of": "B4", "settings": "with tri27_human TRIM27, P14373", "values": [{"variant": "L107V", "effect of a mutation on the interaction": "with no effect"}]}, {"variants_of": "B5", "settings": "with khdr2_human KHDRBS2, Q5VWX1", "values": [{"variant": "L107V", "effect of a mutation on the interaction": "with no effect"}]}, {"variants_of": "B6", "settings": "with coe1_human EBF1, Q9UH73", "values": [{"variant": "W94R", "effect of a mutation on the interaction": "disrupting interaction strength"}]}, {"variants_of": "B7", "settings": "with sumo5_human SUMO1P1, G2XKQ0", "values": [{"variant": "F72L", "effect of a mutation on the interaction": "disrupting interaction strength"}]}]}
